Assay [1] deals with FGF21-signaling in 293/KLB cells. Nature of the assay: Block of FGF21-signaling in 293/KLB cells. Format: cell-based. The following applies: Table 1, FGF21 associated antagonist. The source says: The sequence homology in these endocrine FGF peptides (FGF23^180-205, FGF23^212-239, FGF19^191-216 and FGF21^185-209) is provided in FIG. 2.
Assay [2] has as its system FGFR/KL complex. Nature of the assay: FGF23-signaling activity (stimulation of Erk-phosphorylation) in 293/KL cells. Format: cell-based, human. As to conditions: for EC50: Table 3, p-Erk. Here is the method: (§1) FIGS. 5A-5D provide data relating to the activities of FGF23-analogs containing one or two active KL-interaction sites by in vitro and in vivo methods. […] FIGS. 5B-5D are scatter plots presenting an in vivo assessment of FGF23-activity in mice. WT mice were treated with 0.5 mg/kg body weight with either FGF23, FGF23 A^188, FGF23 A^222, FGF23 A^188,222, or vehicle, n=5 or 10/group, and post 3-hours the gene expression changes were studied by quantitative real time PCR for target genes, FIG. 5B represents measurement of Cyp24a1, FIG. 5C represents measurement of Cyp27b1, and FIG. 5D represents measurement of Egr1. The data is presented as a scatter plot where each dot represents one animal, mean ±SEM. One-way ANOVA with Tukey's comparison was employed for statistical analyses where***P<0.001 vs. vehicle; #P<0.05, ##P<0.01, ###P<0.001 vs FGF23; and $$$P<0.001 vs FGF23 A^188,222 was calculated.
Whether FGF23-based agonism can employ each of the two KL-interaction sites as witnessed in the C72 peptide antagonist was studied. To do so, a selective mutation at position Asp188 or Asp222 was made in the native FGF23. […] This is consistent with prior reports where C-terminal sequence deletion after residue 205 position had no apparent effect on cellular signaling (FIG. 5A, Table 3). […] Asp188 residue is purported to be singularly essential for KL-binding and FGF23 activity, and its importance was substantiated by the lack of antagonism when the C26 peptide was similarly mutated from Asp to Ala (FIG. 4A). […] To confirm that these observations were not resulting from unexpected changes in higher order structure that was not apparent in biosynthesis, purification, or formulation of the mutant proteins their biophysical integrity were directly assessed by thermal denaturation.
The N-terminal domain of the endocrine FGFs primarily determines the FGFR-activation while the C-terminal sequence guides the co-receptor specificity with a Klotho co-receptor, KL or KLB. The receptor complex specificity among the endocrine FGF-proteins can be modulated by altering their C-terminal domains. Consequently, two FGF21-23 chimeric protein analogs were prepared containing the FGF21 N-terminal core with its C-terminal KLB-binding peptide replaced with an FGF23 C-terminal peptide sequence constituted by C72 (FGF21-23 C72) or C26 (FGF21-23 C26) (Table 3).

Assay [3] relates to FGFR/KL-downstream targets Cyp24a1, Cyp27b1 and Egr1. Nature of the assay: Mouse kidney gene expression after FGF23 protein analogs (quantitative real time PCR). In kind it is in vivo. The following applies: WT mice, 0.5 mg/kg, 3 hours. Here is the method:
as §1
To test whether C28 as the second KL-interaction site can promote FGF23 in vivo activity, the single site FGF23-analogs were assessed for their ability to alter kidney gene expression in normal mice. Four proteins (FGF23, FGF23 A188, FGF23 A222 or FGF23 A188, 222 analogs) were each dosed to mice 0.5 mg/kg and 3 hours later quantitative real time PCR was employed to assess kidney mRNA expression of the FGFR/KL-downstream targets Cyp24a1, Cyp27b1 and early growth response protein 1 (Egr1). […] This is not surprising since the optimal treatment time for Egrl modulation is as early as 1 hour for FGF-signaling measurements. The magnitude in upregulation of gene expression for Cyp24a1 was the highest, with twenty-fold induction by native FGF23 treatment (FIG. 5B). […] Similarly, the Egrl induction is reduced for FGF23 A188 and FGF23 A222 analogs as compared to native FGF23 (P<0.05, FIG. 5D), but no difference is observed among the analogs and FGF23 for Cyp27b1 (FIG. 5C).
A general note: In qPCR the cycle at which signal appears reflects the starting amount.

The values that follow come from US20230382966A1, “NOVEL KLOTHO INTERACTION SITE IN THE C-TERMINUS OF FGF23” (INDIANA UNIVERSITY RESEARCH AND TECHNOLOGY CORPORATION, priority 2020, published 2023).

Sequence of FGFR/KL complex (Q9UEF7 34-1012, one chain of several): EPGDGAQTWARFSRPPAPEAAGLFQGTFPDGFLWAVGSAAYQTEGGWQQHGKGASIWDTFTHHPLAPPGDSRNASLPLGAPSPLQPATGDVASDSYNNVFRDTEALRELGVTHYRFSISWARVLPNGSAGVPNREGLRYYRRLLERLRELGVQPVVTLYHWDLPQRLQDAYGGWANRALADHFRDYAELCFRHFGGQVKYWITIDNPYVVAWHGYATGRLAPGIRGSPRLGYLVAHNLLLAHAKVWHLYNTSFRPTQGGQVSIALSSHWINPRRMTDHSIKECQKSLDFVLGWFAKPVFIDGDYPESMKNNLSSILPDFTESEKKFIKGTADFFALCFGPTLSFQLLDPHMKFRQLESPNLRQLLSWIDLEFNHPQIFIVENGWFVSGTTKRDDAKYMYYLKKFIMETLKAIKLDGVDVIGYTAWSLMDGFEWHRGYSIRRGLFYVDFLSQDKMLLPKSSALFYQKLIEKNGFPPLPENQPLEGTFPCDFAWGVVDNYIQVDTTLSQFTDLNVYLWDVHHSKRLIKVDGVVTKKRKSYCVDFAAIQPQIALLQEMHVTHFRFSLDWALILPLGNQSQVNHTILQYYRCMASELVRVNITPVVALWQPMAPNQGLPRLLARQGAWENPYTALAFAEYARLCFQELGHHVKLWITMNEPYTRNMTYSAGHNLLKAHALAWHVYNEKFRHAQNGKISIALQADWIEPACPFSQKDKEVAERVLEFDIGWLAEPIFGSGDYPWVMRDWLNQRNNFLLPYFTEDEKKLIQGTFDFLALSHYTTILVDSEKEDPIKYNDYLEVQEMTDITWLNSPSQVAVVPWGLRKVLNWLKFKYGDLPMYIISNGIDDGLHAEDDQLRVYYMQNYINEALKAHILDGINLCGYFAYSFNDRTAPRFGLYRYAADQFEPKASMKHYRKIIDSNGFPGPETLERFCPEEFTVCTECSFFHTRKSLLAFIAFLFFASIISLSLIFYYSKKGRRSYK

The molecule “21C25: FGF21 associated antagonist (FGF21^185-209, C25) (PPDVGSSDPLSMVGPSQGRSPSYAS)” returned an IC50 in assay [1] of 75.2 ± 19 nM.

B1: FGF23 A^188: FGF23^25-240, A^188 (protein)
chain: YPNASPLLGSSWGGLIHLYTATARNSYHLQIHKNGHVDGAPHQTIYSALMIRSEDAGFVVITGVMSRRYLCMDFRGNIFGSHYFDPENCRFQHQTLENGYDVYHSPQYHFLVSLGRAKRAFLPGMNPPPYSQFLSRRNEIPLIHFNTPIPRRHTRSAEDDSERAPLNVLKPRARMTPAPASCSQELPSAEDNSPMASDPLGVVRGGRVNTHAGGTG
Regarding B1, in assay [2], the “FGF23-type agonism / FGFR/KL activation (in words)” value is “retained full potency” and the concentration giving a half-maximal response (EC50) stood at 0.28 ± 0.08 nM. Further, in assay [3], the “kidney Cyp24a1 mRNA expression vs vehicle” value is “significant elevation” and the “kidney Cyp27b1 mRNA expression vs vehicle” value is listed as “coordinate suppression”. In assay [3] (kidney), the “Egr1 induction as compared to native FGF23” value was “reduced” and the “magnitude of Cyp24a1 effect as compared to native FGF23” value is reported as “fractionally reduced”.

B2: FGF23: FGF23^25-240, native protein (protein)
chain: YPNASPLLGSSWGGLIHLYTATARNSYHLQIHKNGHVDGAPHQTIYSALMIRSEDAGFVVITGVMSRRYLCMDFRGNIFGSHYFDPENCRFQHQTLENGYDVYHSPQYHFLVSLGRAKRAFLPGMNPPPYSQFLSRRNEIPLIHFNTPIPRRHTRSAEDDSERDPLNVLKPRARMTPAPASCSQELPSAEDNSPMASDPLGVVRGGRVNTHAGGTG
B2 displayed a concentration giving a half-maximal response (EC50) in assay [2] of 0.16 ± 0.05 nM. For the same molecule, in assay [3], the “kidney Cyp24a1 mRNA expression vs vehicle” value is “significant elevation” and the “kidney Cyp27b1 mRNA expression vs vehicle” value is listed as “coordinate suppression”. In addition, the “magnitude of upregulation of Cyp24a1 gene expression (induction)” value in assay [3] (kidney) is “twenty-fold”.

B3: FGF23 A^188,222: FGF23^25-240, A^188,222 (protein)
chain: YPNASPLLGSSWGGLIHLYTATARNSYHLQIHKNGHVDGAPHQTIYSALMIRSEDAGFVVITGVMSRRYLCMDFRGNIFGSHYFDPENCRFQHQTLENGYDVYHSPQYHFLVSLGRAKRAFLPGMNPPPYSQFLSRRNEIPLIHFNTPIPRRHTRSAEDDSERAPLNVLKPRARMTPAPASCSQELPSAEDNSPMASAPLGVVRGGRVNTHAGGTG
For B3, in assay [2], the “FGF23-type agonism / FGFR/KL activation (in words)” value is given as “bioactivity was abrogated”. In addition, in assay [3], the “kidney Cyp24a1 mRNA expression vs vehicle” value is “inactive” and the “kidney Cyp27b1 mRNA expression vs vehicle” value was “inactive”. In assay [3] (kidney), the “Egr1 induction as compared to native FGF23” value is reported as “statistically different”.

The term IC50 denotes the point on the concentration scale where inhibition reaches its midpoint. Read a low IC50 as greater potency in that assay. As a reminder, the EC50 is the midpoint of the concentration-response curve.
